# Source: US20110117113A1, “IMMUNOGLOBULIN SINGLE VARIABLE DOMAIN DIRECTED AGAINST HUMAN CXCR4 AND OTHER CELL ASSOCIATED PROTEINS AND METHODS TO GENERATE THEM” (priority 2009, published 2011)
# B1: 238D2: monovalent anti CXCR4 Nanobody, SEQ ID NO: 2 (protein)
# VHH: EVQLVESGGGLVQTGGSLRLSCAASGFTFSSYAMSWVRQAPGKGLEWVSGIKSSGDSTRYAGSVKGRFTISRDNAKNMLYLQMYSLKPEDTAVYYCAKSRVSRTGLYTYDNRGQGTQVTVSS
# modifications: Nanobody
# What was measured:
# Test in all cases: Shotgun mutagenesis epitope mapping, immunofluorescence on CXCR4 mutation library in HEK-293T
# Format in all cases: binding
# [1] = target: T1, CXCR4 mutation library (Human CXCR4-short) (Homo sapiens, UniProt P61073, C218R/E179V/S351T); details: residue E179; mutations C218R, E179V, S351T; normalized to wild type; 3 experiments (+/−range)
# T1 construct: expressed in transfected cells; host or cells: HEK-293T, transient, 384-well
# Description: (§1) Method: See e.g. Willis, et al. 2008. Virus-like particles as quantitative probes of membrane protein interactions. Biochemistry 47:6988-6990. In short, the method comprises the following steps:
# (§2) Create comprehensive mutation library • Start with a cDNA in eukaryotic expression plasmid • Create library where every amino acid is individually mutated
# (§3) Express each clone within living cells in 384-well microplates
# (§4) Detect structure and/or function of proteins
# (§5) • Parental plasmid: Human CXCR4-short (SEQ ID NO: 6, 352 amino acids) • Epitope tags: N-terminal Flag (to detect surface expression), C-terminal V5 (to detect full-length translation) • Cell types used for immunofluorescence assays: HEK-293T
# (§6) The immunofluorescence assay conditions (to detect binding) were optimized for the nanbodies to be tested. In short, 384-well immunofluorescence (IF) assay using HEK-293T cells transiently was transfected with different concentrations of CXCR4 DNA. The plate was first incubated with different concentrations of either Nanobody 238D2 or 238D4, then with 9E10, and finally with Cy3. The commercially-available anti-CXCR4 MAb 12G5 was used as an IF control.
# (§7) Mapping Nanobody Binding to CXCR4 Mutation Library: The entire library was screened in triplicate with each Nanobody. The data was background-subtracted and normalized to wild type reactivity and averaged across the repeats. Nanobody binding was plotted as a function of average surface expression, and measured by immunoreactivity of an N-terminal Flag epitope tag. Thresholds of 60% Flag and 30% Nanobody were used to identify critical clones. Using standard IF conditions, we identified 1 critical residue (2 critical clones). Using increased stringency assay conditions (high salt), we identified 5 additional residues (Tables C-3 and C-4).
# [2] = target: T2, CXCR4 mutation library (Human CXCR4-short) (Homo sapiens, UniProt P61073, D187A/Y157C); details: residue D187; mutations D187A, Y157C; normalized to wild type; 3 experiments (+/−range)
# T2 construct: expressed in transfected cells; host or cells: HEK-293T, transient, 384-well
# Description: as §1, §2, §3, §4, §5, §6, §7
# [3] = target: T3, CXCR4 mutation library (Human CXCR4-short) (Homo sapiens, UniProt P61073, D187V); details: residue D187; mutation D187V; normalized to wild type; 3 experiments (+/−range)
# T3 construct: expressed in transfected cells; host or cells: HEK-293T, transient, 384-well
# Description: as §1, §2, §3, §4, §5, §6, §7
# [4] = target: T4, CXCR4 mutation library (Human CXCR4-short) (Homo sapiens, UniProt P61073, E277G); details: residue E277; mutation E277G; normalized to wild type; 3 experiments (+/−range); 238D2 critical residues under high stringency
# T4 construct: expressed in transfected cells; host or cells: HEK-293T, transient, 384-well
# Description: as §1, §2, §3, §4, §5, §6, §7
# [5] = target: T5, CXCR4 mutation library (Human CXCR4-short) (Homo sapiens, UniProt P61073, F189L/S319P/V155E); details: residue F189; mutations F189L, S319P, V155E; normalized to wild type; 3 experiments (+/−range)
# T5 construct: expressed in transfected cells; host or cells: HEK-293T, transient, 384-well
# Description: as §1, §2, §3, §4, §5, §6, §7
# [6] = target: T6, CXCR4 mutation library (Human CXCR4-short) (Homo sapiens, UniProt P61073, F189V); details: residue F189; mutation F189V; normalized to wild type; 3 experiments (+/−range)
# T6 construct: expressed in transfected cells; host or cells: HEK-293T, transient, 384-well
# Description: as §1, §2, §3, §4, §5, §6, §7
# [7] = target: T7, CXCR4 mutation library (Human CXCR4-short) (Homo sapiens, UniProt P61073, K230E/S178R); details: residue S178; mutations K230E, S178R; normalized to wild type; 3 experiments (+/−range)
# T7 construct: expressed in transfected cells; host or cells: HEK-293T, transient, 384-well
# Description: as §1, §2, §3, §4, §5, §6, §7
# [8] = target: T8, CXCR4 mutation library (Human CXCR4-short) (Homo sapiens, UniProt P61073, P163L/S178I); details: residue S178; mutations P163L, S178I; normalized to wild type; 3 experiments (+/−range)
# T8 construct: expressed in transfected cells; host or cells: HEK-293T, transient, 384-well
# Description: as §1, §2, §3, §4, §5, §6, §7
# [9] = target: T9, CXCR4 mutation library (Human CXCR4-short) (Homo sapiens, UniProt P61073, P191T); details: residue P191; mutation P191T; normalized to wild type; 3 experiments (+/−range); 238D2 critical residues under high stringency
# T9 construct: expressed in transfected cells; host or cells: HEK-293T, transient, 384-well
# Description: as §1, §2, §3, §4, §5, §6, §7
# [10] = target: T10, CXCR4 mutation library (Human CXCR4-short) (Homo sapiens, UniProt P61073, S178C); details: residue S178; mutation S178C; normalized to wild type; 3 experiments (+/−range)
# T10 construct: expressed in transfected cells; host or cells: HEK-293T, transient, 384-well
# Description: as §1, §2, §3, §4, §5, §6, §7
# [11] = target: T11, CXCR4 mutation library (Human CXCR4-short) (Homo sapiens, UniProt P61073, V196E); details: residue V196; mutation V196E; normalized to wild type; 3 experiments (+/−range); 238D2 critical residues under high stringency
# T11 construct: expressed in transfected cells; host or cells: HEK-293T, transient, 384-well
# Description: as §1, §2, §3, §4, §5, §6, §7
# [12] = target: T12, CXCR4 mutation library (Human CXCR4-short) (Homo sapiens, UniProt P61073, W195R); details: residue W195; mutation W195R; normalized to wild type; 3 experiments (+/−range); 238D2 critical residues under high stringency
# T12 construct: expressed in transfected cells; host or cells: HEK-293T, transient, 384-well
# Description: as §1, §2, §3, §4, §5, §6, §7
# [13] = tested on: CXCR4 mutation library (Human CXCR4-short)
# Description: as §1, §2, §3, §4, §5, §6, §7
# T11 sequence (P61073 whole entry V196E): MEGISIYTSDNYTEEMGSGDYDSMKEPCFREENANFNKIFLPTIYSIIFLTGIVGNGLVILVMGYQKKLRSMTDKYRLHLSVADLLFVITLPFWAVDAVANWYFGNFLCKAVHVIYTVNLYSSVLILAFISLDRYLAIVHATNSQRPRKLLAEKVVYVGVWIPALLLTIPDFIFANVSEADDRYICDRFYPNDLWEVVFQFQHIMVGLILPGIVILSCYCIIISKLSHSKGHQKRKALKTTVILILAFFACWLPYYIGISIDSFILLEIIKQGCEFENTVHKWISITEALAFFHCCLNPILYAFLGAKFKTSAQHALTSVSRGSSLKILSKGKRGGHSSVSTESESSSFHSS
# T2 sequence (P61073 whole entry Y157C/D187A): as the sequence (P61073 whole entry V196E) above, with Y157C, D187A, E196V counted along it
# T10 sequence (P61073 whole entry S178C): as the sequence (P61073 whole entry V196E) above, with S178C, E196V counted along it
# T1 sequence (P61073 whole entry E179V/C218R/S351T): as the sequence (P61073 whole entry V196E) above, with E179V, E196V, C218R, S351T counted along it
# T3 sequence (P61073 whole entry D187V): as the sequence (P61073 whole entry V196E) above, with D187V, E196V counted along it
# T12 sequence (P61073 whole entry W195R): as the sequence (P61073 whole entry V196E) above, with W195R, E196V counted along it
# T9 sequence (P61073 whole entry P191T): as the sequence (P61073 whole entry V196E) above, with P191T, E196V counted along it
# T6 sequence (P61073 whole entry F189V): as the sequence (P61073 whole entry V196E) above, with F189V, E196V counted along it
# T4 sequence (P61073 whole entry E277G): as the sequence (P61073 whole entry V196E) above, with E196V, E277G counted along it
# T7 sequence (P61073 whole entry S178R/K230E): as the sequence (P61073 whole entry V196E) above, with S178R, E196V, K230E counted along it
# T5 sequence (P61073 whole entry V155E/F189L/S319P): as the sequence (P61073 whole entry V196E) above, with V155E, F189L, E196V, S319P counted along it
# T8 sequence (P61073 whole entry P163L/S178I): as the sequence (P61073 whole entry V196E) above, with P163L, S178I, E196V counted along it
molecule,measurement,setting,value
B1,"% immunofluoresence, clone 414",[1],71.1 (6.7) %
same,"% immunofluoresence, clone 3728",[2],77.1 (18.2) %
same,"% immunofluoresence, clone 2084",[3],93.6 (5.2) %
same,"% immunofluoresence, clone 3622",[4],19.5 (11.9) %
same,"% immunofluoresence, clone 465",[5],31.8 (16.2) %
same,"% immunofluoresence, clone 1129",[6],−1.9 (24.2) %
same,"% immunofluoresence, clone 1057",[7],54.6 (5.8) %
same,"% immunofluoresence, clone 709",[8],64.1 (19.6) %
same,"% immunofluoresence, clone 2184",[9],15.8 (5.4) %
same,"% immunofluoresence, clone 2396",[10],44.9 (13.4) %
same,"% immunofluoresence, clone 2270",[11],20.6 (32.9) %
same,"% immunofluoresence, clone 3630",[12],10.0 (10.4) %
same,"average nanobody reactivity, residue N192","[13]; all clones containing a mutation at N192, * high stringency conditions",8.3*
same,"average nanobody reactivity, residue P191","[13]; all clones containing a mutation at P191, * high stringency conditions",15.8*
same,"average nanobody reactivity, residue V196","[13]; all clones containing a mutation at V196, * high stringency conditions",20.6*
same,"average nanobody reactivity, residue W195","[13]; all clones containing a mutation at W195, * high stringency conditions",10.0*
same,"average nanobody reactivity, residue E277","[13]; average of all clones containing a mutation at E277, * high stringency conditions",27.5*
same,"average nanobody reactivity, residue F189",[13]; average of all clones containing a mutation at F189,−0.9
